Results on one protein are retold here after PMC6078384 (Journal of structural biology, 2013).

For orientation: stoichiometry N means a count of units in the complex or per binding partner.

This series concerns the molecule itself. Nature of the series: SEC. In general terms: Size exclusion chromatography separates by hydrodynamic size, large species first.

B1: ΔN71–AtTHIC (N-terminally truncated Arabidopsis thaliana THIC, HMP-P synthase, lacking the first 71 amino acids) (enzyme)
chain: not shown
Turning to B1, the “stoichiometry N” value worked out at 2.
